The data set deals with AsCas12a (Acidaminococcus sp.?) (UniProt U2UMQ6). As to the kind of experiment: BLI. To be noted: ΨDNA guide binding without target; NEB 2.1, 0.05% Triton X.

For orientation: Kd means the constant that tells how readily two partners part at equilibrium. Lower therefore signals tighter binding.

“AGCACCCAGTCCGCCCTGAGTAGATGTGAATCATCTTTAAT [AsCas12a GFP ΨDNA 3'-biotin]” had a Kd of 24.5 nM.

(Values after patent publication US20260242852.)
